Measured values taken from US20040073013A1 (Chugai, published 2004).

Experiments:
[1] = target: T1, human Integrin Associated Protein (IAP) expressed on mouse leukemia cell line L1210 (human, UniProt Q08722 19-323); experiment: flow cytometry, COS7 supernatant on L1210 cells expressing human IAP, anti-FLAG detection
T1 construct: whole, on cells; also called human IAP; hIAP/L1210
Description: Flow cytometry was performed using the culture supernatants of COS7 cells prepared in Example 6.3 (1) to measure the binding of the MABL2-scFVs and sc(Fv)₂ to human Integrin Associated Protein (IAP) antigen. The culture supernatants to be tested or a culture supernatant of COS7 cells as a control was added to 2×10⁵ cells of the mouse leukemia cell line L1210 expressing human IAP. After incubating on ice and washing, 10 μg/mL of the mouse anti-FLAG antibody (SIGMA) was added and then the cells were incubated and washed. Then, the FITC labeled anti-mouse IgG antibody (BECTON DICKINSON) was added thereto and the cells were incubated and washed again. The fluorescence intensity was measured using the FACScan apparatus (BECTON DICKINSON).

[2] = target: secretion-type human IAP antigen (human, UniProt Q08722 19-142, limits assumed); experiment: competitive ELISA on captured secretion-type human IAP; competitor biotinized MABL-2 antibody
Description: The binding activity of the reconstructed single-chain Fv of antibody MABL-2 was measured based on the inhibiting activity against the binding of mouse monoclonal antibodies to the antigen.
The anti-FLAG antibody adjusted to 1 μg/ml was added to each well on 96-well plate and incubated at 37° C. for 2 hours. After washing, blocking was performed with 1% BSA-PBS. After incubating and washing at a room temperature, the culture supernatant of COS7 cells into which the secretion-type human IAP antigen gene (SEQ ID No. 26) had been introduced was diluted with PBS into twofold volume and added to each well. After incubating and washing at a room temperature, a mixture of 50 μl of the biotinized MABL-2 antibody adjusted to 100 ng/ml and 50 μl of sequentially diluted supernatant of the COS7 cells expressing the reconstructed single-chain Fv of antibody MABL-2 were added into each well. After incubating and washing at a room temperature, the alkaline phosphatase-conjugated streptoavidin (Zymed) was added into each well. After incubating and washing at a room temperature, the substrate solution (SIGMA) was added and absorbance of the reaction mixture in each well was measured at 405 nm.

[3] = target: T1, human Integrin Associated Protein (IAP) …; experiment: flow cytometry, COS7 supernatant on L1210 cells expressing human IAP
Description: Flow cytometry was performed using the aforementioned culture supernatant of COS7 cells to measure binding to the antigen. The culture supernatant of the COS7 cells expressing the chimera MABL-1 antibody or the COS7 cells expressing the chimera MABL-2 antibody, or human IgG antibody (SIGMA) as a control was added to 4×10⁵ cells of mouse leukemia cell line L1210 expressing human IAP and incubated on ice. After washing, the FITC-labeled anti-human IgG antibody (Cappel) was added thereto. After incubating and washing, the fluorescence intensity thereof was measured using the FACScan apparatus (BECTON DICKINSON).

T1 sequence (Q08722 19-323): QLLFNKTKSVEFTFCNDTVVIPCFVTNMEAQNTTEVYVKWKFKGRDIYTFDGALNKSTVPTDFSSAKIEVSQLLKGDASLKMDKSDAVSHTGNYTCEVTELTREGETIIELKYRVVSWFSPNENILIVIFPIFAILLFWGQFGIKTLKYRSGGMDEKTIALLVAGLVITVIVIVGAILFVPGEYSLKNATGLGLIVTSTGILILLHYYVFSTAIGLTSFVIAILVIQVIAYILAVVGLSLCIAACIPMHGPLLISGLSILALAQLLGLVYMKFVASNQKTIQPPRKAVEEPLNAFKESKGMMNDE
Sequence of secretion-type human IAP antigen (Q08722 other isoform, or with tags, fused parts or gaps limits assumed): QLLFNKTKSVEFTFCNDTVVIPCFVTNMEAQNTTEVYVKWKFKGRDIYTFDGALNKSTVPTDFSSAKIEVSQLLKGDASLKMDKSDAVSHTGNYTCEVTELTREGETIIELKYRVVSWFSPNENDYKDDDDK

Binder	binding result [1]	binding result [2]	binding result [3]
MABL2-scFv <LH-0> (scFv, [L chain V]-[H chain V] without a linker, with a leader at the 5' end and FLAG at the C-terminus; COS7 culture supernatant; also called CF2LH-0/pCOS1) scFv: DVVMTQSPLSLPVSLGDQASISCRSSQSLVHSNGKTYLHWYLQKPGQSPKLLIYKVSNRFSGVPDRFSGSGSVTDFTLMISRVEAEDLGVYFCSQSTHVPYTFGGGTKLEIKQVQLQQSGPELVKPGASVKMSCKASGYTFANHVIHWVKQKPGQGLEWIGYIYPYNDGTKYNEKFKDKATLTSDKSSTTAYMDLSSLASEDSAVYYCARGGYYTYDDWGQGTTLTVSSDYKDDDDK	binds	–	–
antibody MABL-2 sc(Fv)2, reconstructed polypeptide comprising two H chain V regions and two L chain V regions (other, Single chain VH-VL-VH-VL from plasmid pCHOM2(Fv)2, with a C-terminal FLAG; Eluted at the position of the monomer in gel filtration) QVQLQQSGPELVKPGASVKMSCKASGYTFANHVIHWVKQKPGQGLEWIGYIYPYNDGTKYNEKFKDKATLTSDKSSTTAYMDLSSLASEDSAVYYCARGGYYTYDDWGQGTTLTVSSGGGGSGGGGSGGGGSDVVMTQSPLSLPVSLGDQASISCRSSQSLVHSNGKTYLHWYLQKPGQSPKLLIYKVSNRFSGVPDRFSGSGSVTDFTLMISRVEAEDLGVYFCSQSTHVPYTFGGGTKLEIKGGGGSGGGGSGGGGSVDSQVQLQQSGPELVKPGASVKMSCKASGYTFANHVIHWVKQKPGQGLEWIGYIYPYNDGTKYNEKFKDKATLTSDKSSTTAYMDLSSLASEDSAVYYCARGGYYTYDDWGQGTTLTVSSGGGGSGGGGSGGGGSDVVMTQSPLSLPVSLGDQASISCRSSQSLVHSNGKTYLHWYLQKPGQSPKLLIYKVSNRFSGVPDRFSGSGSVTDFTLMISRVEAEDLGVYFCSQSTHVPYTFGGGTKLEIKDYKDDDDK	binds	–	–
reconstructed single-chain Fv of antibody MABL-2 (MABL2-scFv), from pCHOM2-transfected COS7 cells (scFv, Tested as COS7 culture supernatant; also called MABL2-scFv/COS7) scFv: QVQLQQSGPELVKPGASVKMSCKASGYTFANHVIHWVKQKPGQGLEWIGYIYPYNDGTKYNEKFKDKATLTSDKSSTTAYMDLSSLASEDSAVYYCARGGYYTYDDWGQGTTLTVSSGGGGSGGGGSGGGGSDVVMTQSPLSLPVSLGDQASISCRSSQSLVHSNGKTYLHWYLQKPGQSPKLLIYKVSNRFSGVPDRFSGSGSVTDFTLMISRVEAEDLGVYFCSQSTHVPYTFGGGTKLEIKDYKDDDDK	binds	binds	–
MABL2-scFv <HL-0> (scFv, [H chain V]-[L chain V] without a linker, with a leader at the 5' end and FLAG at the C-terminus; COS7 culture supernatant; also called CF2HL-0/pCOS1) scFv: QVQLQQSGPELVKPGASVKMSCKASGYTFANHVIHWVKQKPGQGLEWIGYIYPYNDGTKYNEKFKDKATLTSDKSSTTAYMDLSSLASEDSAVYYCARGGYYTYDDWGQGTTLTVSSDVVMTQSPLSLPVSLGDQASISCRSSQSLVHSNGKTYLHWYLQKPGQSPKLLIYKVSNRFSGVPDRFSGSGSVTDFTLMISRVEAEDLGVYFCSQSTHVPYTFGGGTKLEIKDYKDDDDK	binds	–	–
chimera MABL-1 antibody (antibody, V domains shown, Mouse MABL-1 V regions cloned into HEF-kappa and HEF-gamma expression vectors carrying human C regions (WO92/19759); Tested as COS7 culture supernatant) VH: QVQLQQSGPDLVKPGASVKMSCKASGYTFVNHVMHWVKQKPGQGLEWIGYIYPYNDGTKYNEKFKGKATLTSEKSSSAAYMELSSLASEDSAVYYCARGGYYSYDDWGQGTTLTVSS VL: DVVMTQTPLSLPVSLGDQASISCRSSQSLLHSKGNTYLQWYLQKPGQSPKLLIYKVSNRFSGVPDRFSGSGSGTDFTLKISRVEAEDLGVYFCSQSTHVPYTSGGGTKLEIK	–	–	binds
chimera MABL-2 antibody (antibody, V domains shown, Mouse MABL-2 V regions cloned into HEF-kappa and HEF-gamma expression vectors carrying human C regions (WO92/19759); Tested as COS7 culture supernatant) VH: QVQLQQSGPELVKPGASVKMSCKASGYTFANHVIHWVKQKPGQGLEWIGYIYPYNDGTKYNEKFKDKATLTSDKSSTTAYMDLSSLASEDSAVYYCARGGYYTYDDWGQGTTLTVSS VL: DVVMTQSPLSLPVSLGDQASISCRSSQSLVHSNGKTYLHWYLQKPGQSPKLLIYKVSNRFSGVPDRFSGSGSVTDFTLMISRVEAEDLGVYFCSQSTHVPYTFGGGTKLEIK	–	–	binds
